From patent publication CN117836322A

B1: Cv2.3194 IgG1 (antibody)
heavy: EVQLVESGGGLIQPGGSLRLSCAASGITVTSNYMSWVRQAPGKGLEWVSVIYPGGSTFYADSVKGRFTISRDNSKNTLYLQMNSLRAEDTAVYYCARDLVVYGMDVWGQGTTVTVSSASTKGPSVFPLAPSSKSTSGGTAALGCLVKDYFPEPVTVSWNSGALTSGVHTFPAVLQSSGLYSLSSVVTVPSSSLGTQTYICNVNHKPSNTKVDKKVEPKSCDKTHTCPPCPAPELLGGPSVFLFPPKPKDTLMISRTPEVTCVVVDVSHEDPEVKFNWYVDGVEVHNAKTKPREEQYNSTYRVVSVLTVLHQDWLNGKEYKCKVSNKALPAPIEKTISKAKQPREPQVYTLPPSRDELTKNQVSLTCLVKGFYPSDIAVEWESNGQPENNYKTTPPVLDSDGSFFLYSKLTVDKSRWQQGNVFSCSVMHEALHNHYTQKSLSLSPGK
light: EIVLTQSPGTLSLSPGERATLSCRASQSVSSSYLAWYQQKPGQAPRLLIYGASSRATGIPGRFSGSGSGTDFTLTISRLEPEDFAIYYCQQGVTFGGGTKVEIKRTVAAPSVFIFPPSDEQLKSGTASVVCLLNNFYPREAKVQWKVDNALQSGNSQESVTEQDSKDSTYSLSSTLTLSKADYEKHKVYACEVTHQGLSSPVTKSFNRGEC
B2: Cv2.5213 IgG1 (antibody)
heavy: EVQLVESGGGLIQPGGSLRLSCAASGFTVSSNYMSWVRQAPGKGLEWVSLIYSGGSTYYADSVKGRFTISRDNSKNTLYLQMNSLRAEDTAVYYCARDLNYYGMDVWGQGATVTVSSASTKGPSVFPLAPSSKSTSGGTAALGCLVKDYFPEPVTVSWNSGALTSGVHTFPAVLQSSGLYSLSSVVTVPSSSLGTQTYICNVNHKPSNTKVDKKVEPKSCDKTHTCPPCPAPELLGGPSVFLFPPKPKDTLMISRTPEVTCVVVDVSHEDPEVKFNWYVDGVEVHNAKTKPREEQYNSTYRVVSVLTVLHQDWLNGKEYKCKVSNKALPAPIEKTISKAKQPREPQVYTLPPSRDELTKNQVSLTCLVKGFYPSDIAVEWESNGQPENNYKTTPPVLDSDGSFFLYSKLTVDKSRWQQGNVFSCSVMHEALHNHYTQKSLSLSPGK
light: not shown
B3: Cv2.3235 IgG1 (antibody)
heavy: EVQLVESGGGLIQPGGSLRLSCAASGFTVSRNYMSWVRQAPGKGLEWVSVIYSGGSTFYADSVKGRFTISRDNSKNTLYLQMNSLRAEDTAVYYCARDGDYYGMDVWGQGTTVTVSSASTKGPSVFPLAPSSKSTSGGTAALGCLVKDYFPEPVTVSWNSGALTSGVHTFPAVLQSSGLYSLSSVVTVPSSSLGTQTYICNVNHKPSNTKVDKKVEPKSCDKTHTCPPCPAPELLGGPSVFLFPPKPKDTLMISRTPEVTCVVVDVSHEDPEVKFNWYVDGVEVHNAKTKPREEQYNSTYRVVSVLTVLHQDWLNGKEYKCKVSNKALPAPIEKTISKAKQPREPQVYTLPPSRDELTKNQVSLTCLVKGFYPSDIAVEWESNGQPENNYKTTPPVLDSDGSFFLYSKLTVDKSRWQQGNVFSCSVMHEALHNHYTQKSLSLSPGK
light: DIQMTQSPSFLSASVGDRVTITCRASQGISSFLAWYQQKPGKAPKLLIYGASTLQSGVTSRFSGSGSGTEFTLTISSLQPEDFATYYCQRLDSYPPITFGQGTRLEIKRTVAAPSVFIFPPSDEQLKSGTASVVCLLNNFYPREAKVQWKVDNALQSGNSQESVTEQDSKDSTYSLSSTLTLSKADYEKHKVYACEVTHQGLSSPVTKSFNRGEC
B4: Cv2.1353 IgG1 (antibody)
heavy: EVQLVESGGGLVQPGGSLRLSCAASGVTVSSNYMNWVRQAPGKGLEWVSVIYSGGSTFYADSVKGRFIISRDNSKNTLYLQMNSLKTEDTAVYYCARDLGPMGFDIWGQGTMVTVSSASTKGPSVFPLAPSSKSTSGGTAALGCLVKDYFPEPVTVSWNSGALTSGVHTFPAVLQSSGLYSLSSVVTVPSSSLGTQTYICNVNHKPSNTKVDKKVEPKSCDKTHTCPPCPAPELLGGPSVFLFPPKPKDTLMISRTPEVTCVVVDVSHEDPEVKFNWYVDGVEVHNAKTKPREEQYNSTYRVVSVLTVLHQDWLNGKEYKCKVSNKALPAPIEKTISKAKQPREPQVYTLPPSRDELTKNQVSLTCLVKGFYPSDIAVEWESNGQPENNYKTTPPVLDSDGSFFLYSKLTVDKSRWQQGNVFSCSVMHEALHNHYTQKSLSLSPGK
light: DIQMTQSPSFLSASVGDRVTITCRASQGISSYLAWYQQKPGKAPKLLIYAASTLQSGVPSRFSGSGSGTEFTLTISSLQPEDFATYYCQQLNSDPPVTFGPGTKVDIKRTVAAPSVFIFPPSDEQLKSGTASVVCLLNNFYPREAKVQWKVDNALQSGNSQESVTEQDSKDSTYSLSSTLTLSKADYEKHKVYACEVTHQGLSSPVTKSFNRGEC

Target: SARS-CoV-2 RBD结构域 (wild type) (SARS-CoV-2)
Test: SPR (Biacore), antibody coupled to CM5 chip, viral protein as analyte, 25°C
Conditions: remark: other sources report otherwise

Question: How did the Kd turn out when B1 was run?
Answer: < 1000 nM

Question: How did the Kd turn out when B2 was run?
Answer: < 1000 nM

Question: How did the Kd turn out when B3 was run?
Answer: < 1000 nM

Question: For B4, which Kd is on record?
Answer: < 1000 nM
